In patent US20160368995A1 (University of California, published 2016):

Key:
Assay in all cases: binding and/or signaling studies
[1] = target: T1, CCR2 (human, UniProt P41597-2 1-360)
T1 sequence: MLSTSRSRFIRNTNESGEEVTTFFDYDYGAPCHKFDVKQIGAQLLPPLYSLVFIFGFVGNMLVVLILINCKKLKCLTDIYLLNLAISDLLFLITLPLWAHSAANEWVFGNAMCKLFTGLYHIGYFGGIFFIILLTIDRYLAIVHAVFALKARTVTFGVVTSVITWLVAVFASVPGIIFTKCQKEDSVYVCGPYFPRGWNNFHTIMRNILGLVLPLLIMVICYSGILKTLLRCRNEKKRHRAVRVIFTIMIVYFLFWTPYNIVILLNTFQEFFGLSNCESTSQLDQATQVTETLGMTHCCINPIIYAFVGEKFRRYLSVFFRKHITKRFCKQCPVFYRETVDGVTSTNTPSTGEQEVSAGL
Description: (§1) Radioligand displacement studies of various chemotaxis receptors were carried out. For the radioligand binding assay, membranes from HEK293T cells transiently expressing the respective chemokine receptors were incubated with ˜[…] ¹²⁵I-chemokine and increasing concentrations of chemokine (control) or CXCL17. Cells were incubated for 3 h at 4° C. and washed twice with binding buffer containing 0.5 M NaCl. After harvesting the samples with lysis buffer, the remaining cell-bound radioactivity was counted.

[2] = target: T2, CXCR4 (human, UniProt P61073-2 1-356)
T2 construct: The construct used is not described
T2 sequence (P61073 other isoform, or with tags, fused parts or gaps): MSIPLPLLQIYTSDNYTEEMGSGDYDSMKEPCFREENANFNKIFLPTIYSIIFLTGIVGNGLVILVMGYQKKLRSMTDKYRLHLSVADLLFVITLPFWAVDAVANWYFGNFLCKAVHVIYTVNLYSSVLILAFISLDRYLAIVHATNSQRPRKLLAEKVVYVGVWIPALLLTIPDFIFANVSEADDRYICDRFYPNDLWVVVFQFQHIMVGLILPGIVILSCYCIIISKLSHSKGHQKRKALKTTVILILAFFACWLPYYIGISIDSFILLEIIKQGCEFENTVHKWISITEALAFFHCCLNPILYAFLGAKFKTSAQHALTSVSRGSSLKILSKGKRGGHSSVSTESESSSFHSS
Description: as §1

[3] = target: T3, CXCR7 (human, UniProt P25106 1-362)
T3 construct: Tested on CXCR7 expressing cells
T3 sequence (P25106 whole entry): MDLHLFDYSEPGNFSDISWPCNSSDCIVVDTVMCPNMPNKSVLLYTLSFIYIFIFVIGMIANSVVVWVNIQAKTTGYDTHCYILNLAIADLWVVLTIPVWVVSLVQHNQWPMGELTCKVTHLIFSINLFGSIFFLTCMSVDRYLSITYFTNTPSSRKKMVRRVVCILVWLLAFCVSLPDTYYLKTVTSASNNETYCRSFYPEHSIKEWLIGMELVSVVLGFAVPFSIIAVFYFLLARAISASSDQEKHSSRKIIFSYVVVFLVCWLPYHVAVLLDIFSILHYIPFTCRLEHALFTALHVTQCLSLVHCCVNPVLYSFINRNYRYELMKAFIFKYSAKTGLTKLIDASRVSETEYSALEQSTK
Description: as §1

[4] = target: T4, CXCR3 (UniProt P49682 1-368, limits assumed)
T4 construct: whole, on cells
T4 sequence (looked up): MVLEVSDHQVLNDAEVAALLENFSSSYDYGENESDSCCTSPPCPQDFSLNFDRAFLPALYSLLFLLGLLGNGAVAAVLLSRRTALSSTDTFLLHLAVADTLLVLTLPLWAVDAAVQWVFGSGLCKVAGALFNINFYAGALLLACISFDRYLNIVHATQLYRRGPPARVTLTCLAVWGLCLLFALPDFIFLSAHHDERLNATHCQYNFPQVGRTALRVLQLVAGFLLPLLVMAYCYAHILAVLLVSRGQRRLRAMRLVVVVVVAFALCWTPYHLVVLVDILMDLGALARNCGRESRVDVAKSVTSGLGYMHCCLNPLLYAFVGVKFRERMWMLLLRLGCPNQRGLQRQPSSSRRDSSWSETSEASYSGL
Description: as §1

[5] = target: T5, CCX-CKR (UniProt Q9NPB9 1-350, limits assumed)
T5 construct: whole, on cells
T5 sequence (looked up): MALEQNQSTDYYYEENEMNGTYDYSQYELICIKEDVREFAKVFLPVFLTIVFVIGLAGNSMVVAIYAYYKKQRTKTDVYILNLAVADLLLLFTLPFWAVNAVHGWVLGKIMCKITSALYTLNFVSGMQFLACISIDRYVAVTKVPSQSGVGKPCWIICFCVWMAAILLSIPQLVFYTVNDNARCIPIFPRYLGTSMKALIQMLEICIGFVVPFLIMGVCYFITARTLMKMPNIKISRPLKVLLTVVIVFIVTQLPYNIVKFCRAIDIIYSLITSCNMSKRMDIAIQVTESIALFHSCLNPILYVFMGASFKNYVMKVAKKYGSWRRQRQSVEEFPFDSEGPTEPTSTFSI
Description: as §1

binding result [1]: no binding
binding result [2]: no binding
binding result [3]: no binding
binding result [4]: no binding
binding result [5]: no binding
B1: recombinant human CXCL17 (chemokine (C-X-C motif) ligand 17) (ligand)
chain: SSLNPGVARGHRDRGQASRRWLQEGGQECECKDWFLRAPRRKFMTVSGLPKKQCPCDHFKGNVKKTRHQRHHRKPNKHSRACQQFLKQCQLRSFALPL
notes: Bought recombinant protein (R&D Systems); also called human recombinant CXCL17
